Measured values taken from the Immune Epitope Database (IEDB).

Tests used:
Details in all cases: source organism: Yersinia pestis Nepal516
HLA-B*27:20 = experiment: IEDB peptide-MHC binding, purified MHC/competitive/fluorescence; filed as Kd, often an IC50 or EC50 that approximates it; ≥ and ≤ were set here for values at or beyond the usual limits of such assays
HLA-B*83:01 = experiment: as above
HLA-B*40:13 = experiment: as above
HLA-B*15:42 = experiment: as above
HLA-B*15:01 = experiment: as above
HLA-A*32:15 = experiment: as above
HLA-B*45:06 = experiment: as above
HLA-A*02:01 = experiment: as above
HLA-C*06:02 = experiment: as above
HLA-A*26:01 = experiment: as above
HLA-B*58:01 = experiment: as above
HLA-C*14:02 = experiment: IEDB peptide-MHC binding, purified MHC/direct/fluorescence; filed as Kd, often an IC50 or EC50 that approximates it; ≥ and ≤ were set here for values at or beyond the usual limits of such assays
HLA-C*15:02 = experiment: as above

YMYDFILRF
Kd (HLA-B*27:20): 63.3 nM
Kd (HLA-B*83:01): ≥ 5000 nM
Kd (HLA-B*40:13): 159 nM
Kd (HLA-B*15:42): ≥ 5000 nM
Kd (HLA-B*15:01): 2330 nM
Kd (HLA-A*32:15): 908 nM
Kd (HLA-B*45:06): ≥ 5000 nM
Kd (HLA-A*02:01): 15.9 nM
Kd (HLA-C*06:02): 1180 nM
Kd (HLA-A*26:01): ≥ 20000 nM
Kd (HLA-B*58:01): ≥ 20000 nM
Kd (HLA-C*14:02): 4100 nM
Kd (HLA-C*15:02): ≥ 20000 nM
